Data on 26 molecules can be found in patent US20090311283A1.

In general, IC50 refers to the concentration that inhibits the measured activity by half.

Read-outs that look alike come from different tables or passages of the source.

The target in one experiment is T1, HLA-DRB1*0101 (human).
T1 chain 1: not shown
T1 chain 2: not shown
Nature of the experiment: inhibition of 125I-labelled probe peptide binding to purified HLA-DR; gel filtration. As to conditions: remark: other sources report otherwise. Background: Size exclusion chromatography separates by hydrodynamic size, large species first.

The next experiment deals with T2, HLA-DRB1*0701 (human).
T2 chain 1: not shown
T2 chain 2: not shown
The description is as above. Particulars: remark: other sources report otherwise.

A further experiment addresses T3, HLA-DRB1*0401 (human).
T3 chain 1: not shown
T3 chain 2: not shown
The experiment is described as above. As to conditions: remark: other sources report otherwise.

Experiment [1] deals with HLA-A*0301 (human). Nature of the experiment: competition with 125I-labelled probe peptide for purified HLA, gel filtration; relative to standard peptide.
Experiment [2] concerns the target HLA-B*0702 (Human). Nature of the experiment: competition with 125I-labelled probe peptide for purified HLA, gel filtration.
For a further experiment, the target named is HLA-B*5101 (Human). Described as above.
Experiment [3] addresses HLA-B*5401 (Human). The description is as above.
The target in a further experiment is HLA-B*5301 (Human). Described as above.
The target of a further experiment is HLA-B*3501 (Human). The description is as above.
The target of experiment [4] is HLA-A*3101 (Human). As to conditions: remark: other sources report otherwise.
Experiment [5] addresses HLA-A*3101 (human). Nature of the experiment: competitive inhibition of 125I-labelled probe peptide binding to purified HLA; relative to standard peptide.
For experiment [6], the target named is HLA-A*1101 (human). The description is as above.
Experiment [7] concerns the target HLA-A*0301 (human). Described as above.
Experiment [8] has as its target HLA-A*3301 (human). The description is as above.
The target of experiment [9] is HLA-A*0301 (human). Nature of the experiment: competition with 125I-labelled probe peptide for purified HLA-A*0301, gel filtration; relative binding against the standard peptide. Particulars: scale: ratio.
Experiment [10] has as its target HLA-A*1101 (human). Nature of the experiment: competition with 125I-labelled probe peptide for purified HLA, gel filtration.
Experiment [11] deals with HLA-A*0301 (human). The experiment is described as above.
The target in experiment [12] is HLA-A*6801 (human). The description is as above. As to conditions: remark: other sources report otherwise.
The target of experiment [13] is HLA-A*3301 (human). Described as above. Particulars: remark: other sources report otherwise.
The target of experiment [14] is HLA-A*6801 (human). Nature of the experiment: competition with 125I probe peptide on purified HLA-A*6801; relative to standard peptide 941.12. As to conditions: remark: other sources report otherwise.
In experiment [15] the target is HLA-A*3101 (human). Nature of the experiment: competition with 125I probe peptide on purified HLA-A*3101; relative to standard peptide 941.12. Particulars: remark: other sources report otherwise.
In experiment [16] the target is HLA-A*0301 (human). Nature of the experiment: competition with 125I probe peptide on purified HLA-A*0301; relative to standard peptide 941.12. Particulars: remark: other sources report otherwise.
The target in experiment [17] is HLA-A*1101 (human).
Experiment [18] concerns the target HLA-A*3301 (human).
The target of experiment [19] is HLA-A*3101 (human). Nature of the experiment: competition with 125I-labelled probe peptide for purified HLA-A*3101, gel filtration; ratio to standard peptide 941.12.
Experiment [20] addresses HLA-A*6801 (human). Nature of the experiment: competition with 125I-labelled probe peptide for purified HLA-A*6801, gel filtration; ratio to standard peptide 941.12.
For experiment [21], the target named is HLA-B*0702 (Human). Nature of the experiment: competition with 125I-labeled probe peptide for purified HLA, gel filtration.
In experiment [22] the target is HLA-B*5401 (Human). Described as above.
Setting [23] is: remark: other sources report otherwise.

B1: … (HBV X 52, 15-mer) (peptide)
peptide: HLSLRGLPVCAFSSA
modifications: not checked
On to B1, for which the binding affinity ratio (IC50 of standard peptide / IC50 of test peptide) came out at 1.3 in the experiment with HLA-DRB1*0101 (human), 0.013 with HLA-DRB1*0701 (human) and 0.0028 with HLA-DRB1*0401 (human).

B2: HBV POL 567 … (peptide)
peptide: GIHLNPNKTK
modifications: not checked
Take B2: the binding affinity ratio (IC50 of standard peptide / IC50 of test peptide) with HLA-A*0301 (human) [1] came to 0.0025.

B3: HBV ENV 9 peptide … (peptide)
peptide: NPLGFFPDHQL
modifications: not checked
B3: the binding affinity ratio (IC50 of standard peptide / IC50 of test peptide) in the experiment with HLA-B*0702 (Human) [2] turned out to be 0.0012; with HLA-B*5101 (Human), 0.0001; in the experiment with HLA-B*5401 (Human) [3], 0.0001; in the experiment with HLA-B*5301 (Human), 0.0028.

B4: HBV NUC 129 peptide … (peptide)
peptide: PPAYRPPNA
modifications: not checked
Consider B4, for which the binding affinity ratio (IC50 of standard peptide / IC50 of test peptide) with HLA-B*0702 (Human) [2] was 0.0001; with HLA-B*3501 (Human), 0.0001; in the experiment with HLA-B*5101 (Human) it was 0.0001; with HLA-B*5401 (Human) [3] it was 0.0003; with HLA-B*5301 (Human) it was 0.0002.

B5: Peptide 26.0153 (HBV X 64, …) (peptide)
peptide: SSAGPCALR
modifications: not checked
With B5, the IC50 with HLA-A*3101 (Human) [4] was 55 nM.

B6: HBV POL 567 peptide … (peptide)
peptide: GIHLNPNKTK
modifications: not checked
Consider B6, for which the binding affinity ratio (IC50 of standard peptide / IC50 of test peptide) with HLA-A*3101 (human) [5] worked out at 0.0009; with HLA-A*1101 (human) [6] it was 0.0011; in the experiment with HLA-A*0301 (human) [7] it was 0.0025; with HLA-A*3301 (human) [8] it was 0.0009.

B7: HBV NUC 29 GMDIDPYK (peptide)
peptide: GMDIDPYK
modifications: not checked
On to B7, for which the binding affinity ratio (IC50 of standard peptide / IC50 of test peptide) with HLA-A*0301 (human) [1] turned out to be 0.0006.

B8: HBV POL 99 peptide LTVNEKRR (peptide)
peptide: LTVNEKRR
modifications: not checked
On to B8, for which the binding affinity ratio (IC50 of standard peptide / IC50 of test peptide) with HLA-A*3101 (human) [5] was -0.0009; with HLA-A*1101 (human) [6], -0.0002; with HLA-A*0301 (human) [7] it was -0.0002; with HLA-A*3301 (human) [8], -0.0009.

B9: HBV POL 153 peptide KAGILYKR (peptide)
peptide: KAGILYKR
modifications: not checked
Regarding B9, the results for the binding affinity ratio (IC50 of standard peptide / IC50 of test peptide) in the experiment with HLA-A*3101 (human) [5], in the experiment with HLA-A*1101 (human) [6] and with HLA-A*3301 (human) [8] were 0.0015, -0.0002 and -0.0009, respectively.

B10: HBV POL 739 peptide SVVLSRKY (peptide)
peptide: SVVLSRKY
modifications: not checked
As for B10, the binding affinity ratio (relative to standard peptide) with HLA-A*0301 (human) [9] was -0.0002.

B11: HBV NUC 175 peptide … (peptide)
peptide: TTVVRRRGR
modifications: not checked
For B11, the binding affinity ratio (relative to standard peptide) in the experiment with HLA-A*0301 (human) [9] (setting [23]) worked out at 0.0008.

B12: HBV NUC 75 peptide NLEDPASR (peptide)
peptide: NLEDPASR
modifications: not checked
B12: the binding affinity ratio (IC50 of standard peptide / IC50 of test peptide) with HLA-A*3101 (human) [5] is -0.0009; with HLA-A*1101 (human) [6], -0.0002; in the experiment with HLA-A*0301 (human) [7], -0.0002; with HLA-A*3301 (human) [8] it was -0.0009.

B13: … (HBV NUC 118) (peptide)
peptide: YLVSFGVWIR
modifications: not checked
As to B13, the binding affinity ratio (IC50 of standard peptide / IC50 of test peptide) with HLA-A*1101 (human) [10] is 0.0002; with HLA-A*0301 (human) [11], 0.0005.

B14: HBV NUC 129 peptide … (peptide)
peptide: PPAYRPPNAPI
modifications: not checked
As to B14, the binding affinity ratio (IC50 of standard peptide / IC50 of test peptide) with HLA-B*0702 (Human) [2] stood at 0.0003; with HLA-B*3501 (Human), 0.0001; in the experiment with HLA-B*5101 (Human) it was 0.0001; with HLA-B*5401 (Human) [3], 0.0001.

B15: HBV POL 736 peptide … (peptide)
peptide: TDNSVVLSRK
modifications: not checked
In the case of B15, in the experiment with HLA-A*0301 (human) [9], the binding affinity ratio (relative to standard peptide) came out at 0.0006.

B16: … (HBV NUC 26) (peptide)
peptide: WLWGMDIDPYK
modifications: not checked
In the case of B16, the binding affinity ratio (IC50 of standard peptide / IC50 of test peptide) with HLA-A*1101 (human) [10] (setting [23]) came out at 0.0013; in the experiment with HLA-A*0301 (human) [11] (setting [23]), 0.003; with HLA-A*6801 (human) [12] it was 0.049; with HLA-A*3301 (human) [13] it was 0.0039.

B17: HBV NUC 29 … (peptide)
peptide: GMDIDPYKEF
modifications: not checked
For B17, in the experiment with HLA-A*0301 (human) [1], the binding affinity ratio (IC50 of standard peptide / IC50 of test peptide) is -0.0003.

B18: HBV POL 716 peptide … (peptide)
peptide: TAELLAACFAR
modifications: not checked
B18: the binding affinity ratio (IC50 standard peptide / IC50 test peptide) in the experiment with HLA-A*6801 (human) [14] was determined as 0.059; with HLA-A*3101 (human) [15], 0.0066; with HLA-A*0301 (human) [16], 0.0006; with HLA-A*1101 (human) [17] (setting [23]), 0.0023; in the experiment with HLA-A*3301 (human) [18] (setting [23]), 0.16. In addition, in the experiment with HLA-A*0301 (human) [9] (setting [23]), the binding affinity ratio (relative to standard peptide) was 0.0006.

B19: Peptide 1.0219 (HBV X 1550, …) (peptide)
peptide: FVLGGCRHK
modifications: not checked
The molecule B19 showed a concentration for half-maximal inhibition (IC50) with HLA-A*3101 (Human) [4] of 1500 nM.

B20: HBV POL 2 peptide … (peptide)
peptide: PLSYQHFRK
modifications: not checked
Consider B20, for which the binding affinity ratio (IC50 of standard peptide / IC50 of test peptide) with HLA-A*3101 (human) [19] is 0.0006; in the experiment with HLA-A*1101 (human) [17] it was 0.0031; in the experiment with HLA-A*6801 (human) [20], 0.0002.

B21: Peptide 1.0993 (HBV X 130, …) (peptide)
peptide: KVFVLGGCR
modifications: not checked
For the molecule B21, the IC50 with HLA-A*3101 (Human) [4] is 30 nM.

B22: HBV POL 98 peptide PLTVNEKR (peptide)
peptide: PLTVNEKR
modifications: not checked
For B22, the binding affinity ratio (IC50 of standard peptide / IC50 of test peptide) was -0.0009 in the experiment with HLA-A*3101 (human) [19], -0.0002 with HLA-A*1101 (human) [17], -0.0009 with HLA-A*3301 (human) [18] and 0.0001 with HLA-A*6801 (human) [20].

B23: HBV POL 398 peptide … (peptide)
peptide: VPNLQSLTNL
modifications: not checked
B23: the binding affinity ratio (IC50 of standard peptide / IC50 of test peptide) with HLA-B*0702 (Human) [21] worked out at 0.0006.

B24: HBV NUC 128 peptide … (peptide)
peptide: TPPAYRPPNA
modifications: not checked
B24: in the experiment with HLA-B*5401 (Human) [22], the binding affinity ratio (IC50 of standard peptide / IC50 of test peptide) was 0.01.

B25: HBV POL 20 peptide PLEEELPR (peptide)
peptide: PLEEELPR
modifications: not checked
For the molecule B25, the binding affinity ratio (IC50 of standard peptide / IC50 of test peptide) with HLA-A*3101 (human) [19] is -0.0009; in the experiment with HLA-A*1101 (human) [17], -0.0002; in the experiment with HLA-A*3301 (human) [18] it was -0.0009; in the experiment with HLA-A*6801 (human) [20], 0.0001.

B26: HBV ENV 58 peptide … (peptide)
peptide: PPHGGLLGW
modifications: not checked
For the molecule B26, the binding affinity ratio (IC50 of standard peptide / IC50 of test peptide) with HLA-B*0702 (Human) [2] is 0.0001; with HLA-B*3501 (Human) it was 0.0002; with HLA-B*5101 (Human) it was 0.0001; with HLA-B*5401 (Human) [3], 0.0002; in the experiment with HLA-B*5301 (Human), 0.0003.
